Assay [1] addresses Protein A ligand of MabSelect Sure resin (GE Healthcare, Chicago, IL). In words: separation factor on protein A resin against mAb3, loading condition.
The target is the same in assay [2]. In words: separation factor on Protein A MabSelect Sure against mAb1; Strip: 100 mM acetic acid.
Assay [3] shares this target. In words: separation factor on Protein A MabSelect Sure against mAb2; Strip: 100 mM acetic acid.
Assay [4] has the same target. In words: resin slurry plate partitioning on Protein A MabSelect Sure; Strip: 100 mM acetic acid.
For assay [5] the target is unchanged. In words: separation factor on Protein A MabSelect Sure against mAb1; Elute: 20 mM NaAcetate, pH 3.5.
The target is the same in assay [6]. Put plainly: separation factor on Protein A MabSelect Sure against mAb2; Elute: 20 mM NaAcetate, pH 3.5.
Assay [7] has the same target. In words: resin slurry plate partitioning on Protein A MabSelect Sure; Elute: 20 mM NaAcetate, pH 3.5.
Assay [8] has the same target. In words: separation factor on Protein A MabSelect Sure against mAb1; Equil/wash: 10 mM NaPhosphate, pH 6.5.
Assay [9] has the same target. In words: separation factor on Protein A MabSelect Sure against mAb2; Equil/wash: 10 mM NaPhosphate, pH 6.5.
Assay [10] has the same target. Put plainly: resin slurry plate partitioning on Protein A MabSelect Sure; Equil/wash: 10 mM NaPhosphate, pH 6.5.
The target is the same in assay [11]. In words: separation factor on Protein A MabSelect Sure against mAb1; High salt wash: 10 mM NaPhosphate, pH 6.5, 0.5M NaCl.
For assay [12] the target is unchanged. Put plainly: separation factor on Protein A MabSelect Sure against mAb2; High salt wash: 10 mM NaPhosphate, pH 6.5, 0.5M NaCl.
Assay [13] shares this target. In words: resin slurry plate partitioning on Protein A MabSelect Sure; High salt wash: 10 mM NaPhosphate, pH 6.5, 0.5M NaCl.

phospholipase B-like 2 (PLBL2) (enzyme): the log α (log KP PLBL2 - log KP mAb3) in assay [1] was -2. Also, the log α (log KP PLBL2 - log KP mAb1) in assay [2] was 0; in assay [5], 0; in [8], -2; in [11], -2. The log α (log KP PLBL2 - log KP mAb2) in assay [3] is 0; in [6], -0.3; in [9] it was -2; in assay [12], -2. Further, the log KP (partition coefficient, bound/free on resin) in assay [4], in assay [7], in assay [10] and in assay [13] was 0 in each case.
